The values that follow come from patent US20120027677A1.

Read-outs that look alike come from different tables or passages of the source.

In experiment [1] the target is T1, PrP^Sc, pathogenic form of the human prion protein (from CJD brain homogenate) (human), P04156.
For experiment [2], the target named is T1, PrP^Sc, pathogenic form of the human …. This is another data set of the same source.
Experiment [3] shares this target. This is another data set of the same source.
The target is the same in experiment [4]. This is another data set of the same source.

B1: peptide of SEQ ID NO: 68 (peptide)
peptide: GGGKKRPKPGG
modifications: not checked
Regarding B1, in experiment [1], the Exp. Mean (ELISA signal) was 418 RLU and the Exp. Mean (as % of 68) was 100%. In experiment [2], this molecule came in with a Mean (% of 68) of 100% and a Mean (ELISA signal) of 85 RLU. In experiment [3], this molecule displayed a Mean (ELISA signal) of 138 RLU. Besides, in experiment [4], the Exp. Mean (ELISA signal) stood at 853 RLU and the Exp. Mean (as % of 68) was determined as 100%.
